From PMC3139607

Experiments:
[1] = target: 2D-CD4-gp120 (Ba-L) complex (human | HIV-1 isolate Ba-L); assay: ELISA; hybridoma culture supernatants diluted 1:1 on solid-phase 2D-CD4, gp120 (Ba-L) or the 2D-CD4/gp120 (Ba-L) complex; values qualitative
[2] = target: two-domain (2D) soluble CD4 (amino acids 1 to 183) (human); assay: as above

B1: MAb DB81 (antibody, V domains shown)
VH: EVQLQQSGPELVKPGASVKISCKASGYSFTDYTMLWVKQSHGKSLEWIGNINPYYDTTTYNLNFKGKATMTVDKSSSTAYMQLNSLTSEDSAVYYCAREGDYGHPFAYWGQGTLVTVSS
VL: DIVMTQSHKFMSTSVGDRVSITCKASQDVSTTVAWYQQKPGQSPKLLIYSASYRYTGVPDRFTGSGSGTDFTFTISSVQAEDLAVYYCQQHYSTPPTFGGGTKLEIR
Binding to CD4-gp120 (ELISA reading) [1]: 2
Binding to CD4 (ELISA reading) [2]: 1.23
